# Measurements taken from patent publication US20120238493A1 (INDIANA UNIVERSITY RESEARCH AND TECHNOLOGY, published 2012).
# Where two headings read alike, the source gives them in different places. Bridges are numbered along the chain shown (N, C = ends). Where no end group is shown, it is not given here. [ ]: non-standard residue; d: D form. The star is where a group is joined. Palmitoyl = CCCCCCCCCCCCCCCC(=O)*; Aib = CC(C)(N)C(=O)O
# T1: GIP receptor (UniProt P48546 22-466, limits assumed)
# T1 sequence (looked up): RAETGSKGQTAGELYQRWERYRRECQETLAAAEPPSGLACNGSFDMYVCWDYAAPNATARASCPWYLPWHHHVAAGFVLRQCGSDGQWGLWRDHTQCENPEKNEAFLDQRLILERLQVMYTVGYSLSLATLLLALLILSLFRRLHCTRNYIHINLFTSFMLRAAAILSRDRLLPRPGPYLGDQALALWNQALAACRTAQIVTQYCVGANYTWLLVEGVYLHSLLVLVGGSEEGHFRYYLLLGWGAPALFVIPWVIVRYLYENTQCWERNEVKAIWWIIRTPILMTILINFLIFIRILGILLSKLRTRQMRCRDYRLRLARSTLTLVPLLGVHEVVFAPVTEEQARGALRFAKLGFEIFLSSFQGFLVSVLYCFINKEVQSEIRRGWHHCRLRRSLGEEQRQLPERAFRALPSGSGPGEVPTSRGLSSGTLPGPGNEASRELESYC
# What was measured:
# Test in all cases: cell-based or functional assay
# GLP-1 receptor [1] = biological target: T2, GLP-1 receptor (UniProt P43220 24-463, limits assumed)
# glucagon receptor [2] = biological target: T3, glucagon receptor (UniProt P47871 26-477, limits assumed)
# T3 sequence (P47871 26-477 limits assumed): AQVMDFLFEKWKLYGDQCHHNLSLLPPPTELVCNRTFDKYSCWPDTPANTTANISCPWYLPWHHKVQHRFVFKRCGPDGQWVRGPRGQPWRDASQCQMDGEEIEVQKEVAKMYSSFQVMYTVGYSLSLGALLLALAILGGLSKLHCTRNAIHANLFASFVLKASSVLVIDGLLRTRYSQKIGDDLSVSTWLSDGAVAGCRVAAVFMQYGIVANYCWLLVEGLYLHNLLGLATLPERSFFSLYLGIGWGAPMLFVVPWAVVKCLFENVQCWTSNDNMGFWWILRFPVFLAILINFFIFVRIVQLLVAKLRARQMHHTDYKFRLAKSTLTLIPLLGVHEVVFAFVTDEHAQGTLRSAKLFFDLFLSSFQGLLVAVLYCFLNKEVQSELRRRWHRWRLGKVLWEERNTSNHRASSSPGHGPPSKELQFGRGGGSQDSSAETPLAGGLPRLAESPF
# GIP receptor [3] = biological target: T1, GIP receptor
# GLP-1 receptor [4] = biological target: T2, GLP-1 receptor; remark: listed apart in the source
# glucagon receptor [5] = biological target: T3, glucagon receptor; remark: listed apart in the source
# GIP receptor [6] = biological target: T1, GIP receptor; remark: listed apart in the source
# GLP-1 receptor [7] = biological target: T2, GLP-1 receptor; remark: listed apart in the source
# glucagon receptor [8] = biological target: T3, glucagon receptor; remark: listed apart in the source
binder,measurement,setting,value
"HSQGTFISDYSKYLDEIHQKEFIAWLMNT-NH2 (lactam 16-20; not fully specified (residue 2); also: AIB at position 2 and position 20 (given S and K), any further modification only) [mt-403 (SEQ ID NO: 12)]",EC50 (cAMP reporter),GLP-1 receptor [1],2.7 pM
same,relative activity (to native hormone),GLP-1 receptor [1],582%
same,EC50 (cAMP reporter),glucagon receptor [2],7.7 pM
same,relative activity (to native hormone),glucagon receptor [2],987%
same,EC50 (cAMP reporter),GIP receptor [3],6.1 pM
same,relative activity (to native hormone),GIP receptor [3],273%
"HSQGTFISDYSKALDEIHQKEFIAWLMNT-NH2 (lactam 16-20; not fully specified (residue 2); also: AIB at position 2 and position 20 (given S and K), any further modification only) [mt-404 (SEQ ID NO: 13)]",EC50 (cAMP reporter),GLP-1 receptor [1],6 pM
same,relative activity (to native hormone),GLP-1 receptor [1],258%
same,EC50 (cAMP reporter),glucagon receptor [2],108 pM
same,relative activity (to native hormone),glucagon receptor [2],70.8%
same,EC50 (cAMP reporter),GIP receptor [3],32.7 pM
same,relative activity (to native hormone),GIP receptor [3],50.6%
"YSQGTFTSDYSKYLDEIHQKEFVNWLLAQ-NH2 (staple (positions not given here); not fully specified; also: olefinic cross-link, positions not given here) [mt-397 (SEQ ID NO: 17)]",EC50 (cAMP reporter),GLP-1 receptor [4],8.5 pM
same,relative activity (to native hormone),GLP-1 receptor [4],288%
same,EC50 (cAMP reporter),glucagon receptor [5],5350 pM
same,relative activity (to native hormone),glucagon receptor [5],0.56%
same,EC50 (cAMP reporter),GIP receptor [6],2.9 pM
same,relative activity (to native hormone),GIP receptor [6],470%
Y[Aib]QGTFTSDYSKYLDEIHQKDFVNWLLAQ-NH2 (not fully specified (residue 20)) [mt-405 (SEQ ID NO: 14)],EC50 (cAMP reporter),GLP-1 receptor [1],2.2 pM
same,relative activity (to native hormone),GLP-1 receptor [1],717%
same,EC50 (cAMP reporter),glucagon receptor [2],9.6 pM
same,relative activity (to native hormone),glucagon receptor [2],797%
same,EC50 (cAMP reporter),GIP receptor [3],3.9 pM
same,relative activity (to native hormone),GIP receptor [3],425%
YSQGTFTSDYSKYLDEQAAKEFIAWLMNGGPSSGAPPPS-NH2 (lactam 16-20; N-terminus assumed; SMILES CC[C@H](C)[C@H](NC(=O)[C@H](Cc1ccccc1)NC(=O)[C@H](CCC(=O)O)NC(=O)[C@@H]1CCCCNC(=O)CC[C@H](NC(=O)[C@H](CC(=O)O)NC(=O)[C@H](CC(C)C)NC(=O)[C@H](Cc2ccc(O)cc2)NC(=O)[C@H](CCCCN)NC(=O)[C@H](CO)NC(=O)[C@H](Cc2ccc(O)cc2)NC(=O)[C@H](CC(=O)O)NC(=O)[C@H](CO)NC(=O)[C@@H](NC(=O)[C@H](Cc2ccccc2)NC(=O)[C@@H](NC(=O)CNC(=O)[C@H](CCC(N)=O)NC(=O)[C@H](CO)NC(=O)[C@@H](N)Cc2ccc(O)cc2)[C@@H](C)O)[C@@H](C)O)C(=O)N[C@@H](CCC(N)=O)C(=O)N[C@@H](C)C(=O)N[C@@H](C)C(=O)N1)C(=O)N[C@@H](C)C(=O)N[C@@H](Cc1c[nH]c2ccccc12)C(=O)N[C@@H](CC(C)C)C(=O)N[C@@H](CCSC)C(=O)N[C@@H](CC(N)=O)C(=O)NCC(=O)NCC(=O)N1CCC[C@H]1C(=O)N[C@@H](CO)C(=O)N[C@@H](CO)C(=O)NCC(=O)N[C@@H](C)C(=O)N1CCC[C@H]1C(=O)N1CCC[C@H]1C(=O)N1CCC[C@H]1C(=O)N[C@@H](CO)C(N)=O) [mt-398 (SEQ ID NO: 18)],EC50 (cAMP reporter),GLP-1 receptor [4],7.8 pM
same,relative activity (to native hormone),GLP-1 receptor [4],315%
same,EC50 (cAMP reporter),glucagon receptor [5],3740 pM
same,relative activity (to native hormone),glucagon receptor [5],0.8%
same,EC50 (cAMP reporter),GIP receptor [6],3.1 pM
same,relative activity (to native hormone),GIP receptor [6],434%
Y[Aib]QGTFTSDYSIYLDKKAA[Aib]EFVNWLLAGGPSSGAPPPSK-NH2 [mt-402 (SEQ ID NO: 11)],EC50 (cAMP reporter),GLP-1 receptor [1],7 pM
same,EC50 (cAMP reporter),GIP receptor [3],18.5 pM
Y[Aib]EGTFTSDYSIYLDKQAA[Aib]EFVNWLLAGGPSSGAPPPSK-NH2 [mt-263 (SEQ ID NO: 10)],EC50 (cAMP reporter),glucagon receptor [2],4040 pM
same,EC50 (cAMP reporter),GIP receptor [3],5.4 pM
same,EC50 (cAMP reporter),glucagon receptor [5],3140 pM
same,EC50 (cAMP reporter),GIP receptor [6],3.3 pM
YSQGTFTSDYSKYLDEIHQKDFVNWLLAGGPSSGAPPPS-NH2 (lactam 16-20; N-terminus assumed; SMILES CC[C@H](C)[C@@H]1NC(=O)[C@@H](NC(=O)[C@H](CC(=O)O)NC(=O)[C@H](CC(C)C)NC(=O)[C@H](Cc2ccc(O)cc2)NC(=O)[C@H](CCCCN)NC(=O)[C@H](CO)NC(=O)[C@H](Cc2ccc(O)cc2)NC(=O)[C@H](CC(=O)O)NC(=O)[C@H](CO)NC(=O)[C@@H](NC(=O)[C@H](Cc2ccccc2)NC(=O)[C@@H](NC(=O)CNC(=O)[C@H](CCC(N)=O)NC(=O)[C@H](CO)NC(=O)[C@@H](N)Cc2ccc(O)cc2)[C@@H](C)O)[C@@H](C)O)CCC(=O)NCCCC[C@@H](C(=O)N[C@@H](CC(=O)O)C(=O)N[C@@H](Cc2ccccc2)C(=O)N[C@H](C(=O)N[C@@H](CC(N)=O)C(=O)N[C@@H](Cc2c[nH]c3ccccc23)C(=O)N[C@@H](CC(C)C)C(=O)N[C@@H](CC(C)C)C(=O)N[C@@H](C)C(=O)NCC(=O)NCC(=O)N2CCC[C@H]2C(=O)N[C@@H](CO)C(=O)N[C@@H](CO)C(=O)NCC(=O)N[C@@H](C)C(=O)N2CCC[C@H]2C(=O)N2CCC[C@H]2C(=O)N2CCC[C@H]2C(=O)N[C@@H](CO)C(N)=O)C(C)C)NC(=O)[C@H](CCC(N)=O)NC(=O)[C@H](Cc2c[nH]cn2)NC1=O) [mt-396 (SEQ ID NO: 16)],EC50 (cAMP reporter),GLP-1 receptor [4],9.3 pM
same,relative activity (to native hormone),GLP-1 receptor [4],262%
same,EC50 (cAMP reporter),glucagon receptor [5],2900 pM
same,relative activity (to native hormone),glucagon receptor [5],1.03%
same,EC50 (cAMP reporter),GIP receptor [6],3.4 pM
same,relative activity (to native hormone),GIP receptor [6],403%
"H[Aib]QGTFTSDYSKYLDERAAQDFVQWLLDGGPSSGAPPPSY(Palmitoyl)G-NH2 (also: Y40 O-2palmitic acid, exact structure not given here) [peptide of SEQ ID NO: 212]",EC50 (cAMP reporter),GLP-1 receptor [7],4 pM
same,EC50 (cAMP reporter),glucagon receptor [8],7 pM
